Data set [1] deals with Asp76 (position 76, …). The data set is described as follows: UV-vis. The note with it: 10 mM citrate, 10 mM MES, 10 mM HEPES, 10 mM MOPS, 10 mM CHES and 10 mM CAPS. The pH was adjusted with HCl or NaOH in steps of 0.5-0.7 units.; Dark (ground) state with all-trans retinal bound; purified, solubilised protein.
The target of data set [2] is Asp80 (position 80, …). The data set is described as follows: UV-vis. The note with it: 10 mM citrate, 10 mM MES, 10 mM HEPES, 10 mM MOPS, 10 mM CHES and 10 mM CAPS. The pH was adjusted with HCl or NaOH in steps of 0.5-0.7 units.; Dark (ground) state with all-trans retinal bound; purified, solubilised protein.

B1: OLPVR1 (viral rhodopsin group 1, viral channelrhodopsin) (Organic Lake phycodnavirus) (protein)
chain: MDNIIMTAYISIFVQIITAIISVYGLFIPLNFKDIILREILILELIVQIIEFIFYIWLIITLQSINEDITYVRYFDWVLTTPVMLLTTVYFFEYMNSDDGIRKKEINDRDYVYLFYICLSNFFMLLIGYLGETKQINKMLTLFGGSFFLFLTFYLLYVKYTKENWMNYIVFYFMFLVWFLYGFAFMFPFSIKNQMYNILDIVSKNIYSIFIFIVILNQSYKLL
B1 returned a pKa in data set [1] of 4.8.

B2: VirChR1 (viral channelrhodopsin 1, viral rhodopsin group 1) (uncultured virus (Tara Oceans metagenomic contig TARA-146-SRF-0.22-3-C376786_1)) (protein)
chain: MKDKELLLLTVKISLVVQIISGIVSSFGIFIKLAPKDYILRDILIIETVVQIVEAIFYVYIYLSLESLDNNVITSRRYFDWVITTPIMLISTILFMRYNIRILYDKSKNKQNRQNKPKSNLTTYNVIKNNKDTIIKIVIGNFIMLCFGYLGEVDILSKTISIPIGFIFFFYVFYLIWREFGSYTQQNQILFWVLFIVWGLYGVSACLPVLQKNICYNILDIISKNFYGLYIFYYIYQHRLVV
In data set [2], B2 gave a pKa of 3.5.

By pKa is commonly meant the negative logarithm of the acid dissociation constant. A lower pKa goes with a stronger acid or weaker base.

Values taken from PMC7659345, “Viral rhodopsins 1 are an unique family of light-gated cation channels” (Nature Communications, 2020).
